Patent US20250051435A1 (INVETX, published 2025)

Target: T1, feline IL-5 (Kingfisher Biotech; RP1152F) (feline, UniProt O77515 20-134)
T1 construct: Bought recombinant protein; also called fIL-5; fIL5
T1 sequence (looked up): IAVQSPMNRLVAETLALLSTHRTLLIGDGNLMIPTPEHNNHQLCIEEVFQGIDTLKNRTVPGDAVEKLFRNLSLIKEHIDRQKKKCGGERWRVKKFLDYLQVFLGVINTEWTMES
Experiment: ELISA, Fab culture supernatant on plate-coated feline IL-5, anti-feline Fab'2-HRP detection
Text: Fragments containing the pre-selected CDR pools from these libraries were randomly paired by overlap PCR to create a new library incorporating mutations throughout all targeted CDRs. The phage propagated following round 4 of selection were used for PCR amplication of LCDR2, LCDR3 and HCDR3. The PCR-amplified fragment containing the light chain and the heavy chain were ligated into a phagemid vector and transformed into E. coli. The number of transformants was approximately 2E+10. Library plasmid DNA was purified using a midi-prep purification method. Ten pg of the library plasmid DNA was transformed into E. coli for growth and propagation of the Fab phage. After overnight phage production, phage was precipitated from the culture supernatant and resuspended in blocking buffer (1% BSA/PBS). The phage were treated at 58° C. for 10 minutes to remove unstable clones prior to the selections. The input phage was incubated for 30 minutes in a blocked ELISA plate coated with feline IL-5. The ELISA plate was washed with PBS, pH 7.4 followed by acid elution of the bound phage. The output phage was then used to infect E. coli for propagation for the next round of selection. For rounds 1, 2, 3 and 4, the ELISA plates were coated with 10 μg/ml, 8 μg/ml, 5 μg/ml and 1 μg/ml, respectively. The number of washes after each round were 3, 5, 10 and 10 for rounds 1, 2, 3 and 4, respectively. Ninety-three clones from the round 4 output were grown overnight for Fab production and tested for binding to feline IL-5 in an ELISA format. For this assay, supernatants from the overnight cultures were incubated in Immulon 4 HBX high-binding plate that was coated with 10 μg/ml feline IL-5 (Kingfisher Biotech; Cat #RP1152F) and blocked with 1% bovine serum albumin in phosphate buffered saline (PBS), pH 7.4. The controls added included the MtxB clone and clone 1H3-C6 which was the top affinity clone from the first stage A1 step. The Fab binding to the feline IL-5 was detected with anti-feline Fab′₂-HRP conjugate.
The results are shown in Table 8A which compares relative Fab binding affinity to feline IL-5 by Fabs disclosed herein. IL-5 binding was detected with anti-feline Fab′₂-HRP conjugate. Differences in CDR amino acids compared to the MtxB are underlined. The data in the last column are absorbance following addition of substrate to detect the HRP conjugate.

Binder	fIL5 Fab (ELISA absorbance) [absorbance]
LxH3-D3 Fab (affinity matured MtxB) (Fab, V domains shown, Fab from the Stage B library on MtxB; the entries named are the parent, the changed regions are told under detail) VH: DVQLVESGGDLVKPGGSLRLTCVGSGFTFSNYAMSWVRQAPGEGLQWVATIGSGGHYTYHPDSVKGRFTISRDNAKNTLYLQMNSLQTEDTASYYCTRETDGYGPILDWGQGTLVTVSS VL: DIVMTQTPLSLSVTPGEPASISCRASQSISDYLYWYLQKPGQSPRLLFNVLSQRSSGVPDRFSGSGSGTDFTLRISRVEADDVGVYYCQQGLVFPYTFGPGTKLEIK	1.28
LxH3-D9 Fab (affinity matured MtxB) (Fab, V domains shown, Fab from the Stage B library on MtxB; the entries named are the parent, the changed regions are told under detail) VH: DVQLVESGGDLVKPGGSLRLTCVGSGFTFSNYAMSWVRQAPGEGLQWVATIGSGGHYTYHPDSVKGRFTISRDNAKNTLYLQMNSLQTEDTASYYCTRETDGYGPILDWGQGTLVTVSS VL: DIVMTQTPLSLSVTPGEPASISCRASQSISDYLYWYLQKPGQSPRLIINYGSVLLSGVPDRFSGSGSGTDFTLRISRVEADDVGVYYCQQGLLFPYTFGPGTKLEIKR	1.13
LxH3-B10 Fab (affinity matured MtxB) (Fab, V domains shown, Fab from the Stage B library on MtxB; the entries named are the parent, the changed regions are told under detail) VH: DVQLVESGGDLVKPGGSLRLTCVGSGFTFSNYAMSWVRQAPGEGLQWVATIGSGGHYTYHPDSVKGRFTISRDNAKNTLYLQMNSLQTEDTASYYCTRETDGYGPILDWGQGTLVTVSS VL: DIVMTQTPLSLSVTPGEPASISCRASQSISDYLYWYLQKPGQSPRRLIFTGSQRASGVPDRFSGSGSGTDFTLRISRVEADDVGVYYCQQGVRFPYTFGPGTKLEIKR	0.702
LxH3-A9 Fab (affinity matured MtxB) (Fab, V domains shown, Fab from the Stage B library on MtxB; the entries named are the parent, the changed regions are told under detail) VH: DVQLVESGGDLVKPGGSLRLTCVGSGFTFSNYAMSWVRQAPGEGLQWVATIGSGGHYTYHPDSVKGRFTISRDNAKNTLYLQMNSLQTEDTASYYCTRETDGYGPLDLWGQGTLVTVSS VL: DIVMTQTPLSLSVTPGEPASISCRASQSISDYLYWYLQKPGQSPRRIIFTGSQRNSGVPDRFSGSGSGTDFTLRISRVEADDVGVYYCQQGMVFPYTFGPGTKLEIKR	0.722
LxH3-F3 Fab (affinity matured MtxB) (Fab, V domains shown, Fab from the Stage B library on MtxB; the entries named are the parent, the changed regions are told under detail) VH: DVQLVESGGDLVKPGGSLRLTCVGSGFTFSNYAMSWVRQAPGEGLQWVATIGSGGHYTYHPDSVKGRFTISRDNAKNTLYLQMNSLQTEDTASYYCTRETDGYGPLDLWGQGTLVTVSS VL: DIVMTQTPLSLSVTPGEPASISCRASQSISDYLYWYLQKPGQSPRLLFNSVSPTRSGVPDRFSGSGSGTDFTLRISRVEADDVGVYYCQQGVVFPYTFGPGTKLEIK	1.16
LxH3-D6 Fab (affinity matured MtxB) (Fab, V domains shown, Fab from the Stage B library on MtxB; the entries named are the parent, the changed regions are told under detail) VH: DVQLVESGGDLVKPGGSLRLTCVGSGFTFSNYAMSWVRQAPGEGLQWVATIGSGGHYTYHPDSVKGRFTISRDNAKNTLYLQMNSLQTEDTASYYCTRETDGYGPILDWGQGTLVTVSS VL: DIVMTQTPLSLSVTPGEPASISCRASQSISDYLYWYLQKPGQSPRRVIYTGSQRSSGVPDRFSGSGSGTDFTLRISRVEADDVGVYYCQQGLVFPYTFGPGTKLEIKR	0.708
LxH3-D1 Fab (affinity matured MtxB) (Fab, V domains shown, Fab from the Stage B library on MtxB; the entries named are the parent, the changed regions are told under detail) VH: DVQLVESGGDLVKPGGSLRLTCVGSGFTFSNYAMSWVRQAPGEGLQWVATIGSGGHYTYHPDSVKGRFTISRDNAKNTLYLQMNSLQTEDTASYYCTRETDGYGPILDWGQGTLVTVSS VL: DIVMTQTPLSLSVTPGEPASISCRASQSISDYLYWYLQKPGQSPRRLIYFGSVRSSGVPDRFSGSGSGTDFTLRISRVEADDVGVYYCQQGLQFPYTFGPGTKLEIKR	1.01
LxH3-B6 Fab (affinity matured MtxB) (Fab, V domains shown, Fab from the Stage B library on MtxB; the entries named are the parent, the changed regions are told under detail) VH: DVQLVESGGDLVKPGGSLRLTCVGSGFTFSNYAMSWVRQAPGEGLQWVATIGSGGHYTYHPDSVKGRFTISRDNAKNTLYLQMNSLQTEDTASYYCTRETDGYGPILDWGQGTLVTVSS VL: DIVMTQTPLSLSVTPGEPASISCRASQSISDYLYWYLQKPGQSPRLIFNPLSVRRSGVPDRFSGSGSGTDFTLRISRVEADDVGVYYCQQGMVFPYTFGPGTKLEIKR	0.972
